B1: truncated form of Homer: 186 amino acid amino-terminal fragment of Homer 1b, lacks the coiled-coil domain, expressed by transfection (protein)
chain: MGEQPIFSTRAHVFQIDPNTKKNWVPTSKHAVTVSYFYDSTRNVYRIISLDGSKAIINSTITPNMTFTKTSQKFGQWADSRANTVYGLGFSSEHHLSKFAEKFQEFKEAARLAKEKSQEKMELTSTPSQESAGGDLQSPLTPESINGTDDERTPDVTQNSEPRAEPTQNALPFPHSSAISKHWEAE
modifications: left off: small tags and cut ends
notes: 186 amino acid amino-terminal fragment of Homer 1b, lacks the coiled-coil domain, expressed by transfection
B2: Homer 1b: full-length Homer 1b expressed from pRK5 plasmid in Purkinje cells (protein, listed as Homo sapiens)
chain: MGEQPIFSTRAHVFQIDPNTKKNWVPTSKHAVTVSYFYDSTRNVYRIISLDGSKAIINSTITPNMTFTKTSQKFGQWADSRANTVYGLGFSSEHHLSKFAEKFQEFKEAARLAKEKSQEKMELTSTPSQESAGGDLQSPLTPESINGTDDERTPDVTQNSEPRAEPTQNALPFSHSSAISKHWEAELATLKGNNAKLTAALLESTANVKQWKQQLAAYQEEAERLHKRVTELECVSSQANAVHTHKTELNQTIQELEETLKLKEEEIERLKQEIDNARELQEQRDSLTQKLQEVEIRNKDLEGQLSDLEQRLEKSQNEQEAFRNNLKTLLEILDGKIFELTELRDNLAKLLECS

Experiments:
[1] = tested on: mGluR-evoked Ca^+2 responses in Purkinje cells; test: Fura-2 ratio imaging of quisqualate-evoked Ca2+ mobilization in transfected cerebellar Purkinje cells; format: cell-based, mouse; details: for mGluR-evoked Ca^+2 response amplitude / mGluR-evoked Ca^+2 response latency: mean±SEM, transfected Purkinje cells, quisqualate micropressure pulse, Ca^+2-free external saline
Text: The truncated Homer protein used lacks the coiled-coil domain and is unable to form a bridge linking the mGluR at the cell surface with intracellular inositol trisphosphate receptors. The truncated form of Homer protein resembled Homer 1a with the exception of 11 residues at the carboxy-terminal. This form of Homer results in enhanced expression of Homer protein as compared with transfection of Homer 1a in heterologous cells. The Homer protein was introduced into Purkinje cells in primary cerebellar cultures and glutamate induced effects on calcium mobilization was measured.
Embryonic mouse cerebellar cultures were prepared and maintained according to the method of Schilling et al. (Schilling et al., Neuron 7:891 1991). At 4-5 DIV, cultures were transfected with plasmids coding for E-GFP (Clontech) and either full-length Homer 1b or an IEG form of Homer 1. The IEG form of Homer 1 was a 186 amino acid amino-terminal fragment of Homer 1b. Plasmids were purified by cesium banding. Three combinations of the plasmids were transfected. Group I (control), 20 Tg of E-GFP and 40 Tg of pRK5 vector; group II, 20 Tg of E-GFP and 40 Tg of pRK5 Homer 1 IEG; group III: 20 Tg of E-GFP and 40 Tg of pRK5 Homer 1b. Plasmid DNA was mixed with gold particles (0.6 micron), and coated onto plastic tubing. DNA was then ballistically transfected into cells according to the manufacturer's protocol (Helios Gene Gun System, BIO-RAD). After transfection, cultures were returned to the incubator and maintained for an additional […] for a total of 7-8 DIV at the time of use for imaging experiments.
Patch electrodes were attached to the somata of GFP-expressing Purkinje cells and a holding potential of −60 mV was applied. Micropressure electrodes (1 Tm tip diameter) were filled with quisqualate (100 Tm in external saline) and were positioned ˜20 Tm away from large-caliber dendrites. Test pulses were delivered using positive pressure (6 psi, 1 sec). Cells were bathed in a solution that contained (in mM) NaCl (140), KCl (5), EGTA (0.2), MgCl2 (0.8), HEPES (10), glucose (10), tetrodotoxin (0.005), and picrotoxin (0.1), adjusted to pH 7.35 with NaOH, which flowed at a rate of 0.5 ml/m The recording electrode contained CsCl (135), HEPES (10), fura-2 K5 salt (0.2), and Na2-ATP (4), adjusted to pH 7.35 with CSOH. Patch electrodes yielded a resistance of 3-5 MA when measured with the internal and external salines described above.
Fura-2 ratio imaging of intracellular free Ca^2+, was accomplished by measuring the background corrected fluorescence ratio at 340 and 380 nm excitation using a cooled CCD camera system, as previously described (Linden et al., J Neurosci 15:5098 1995). Exposure times were 200 msec per single wavelength image. Experiments were conducted at room temperature. Enhanced GFP is weakly excited by illumination in the 380-400 nm spectrum. Based upon the bandpass characteristics of our 340HT15 and 380HT10 excitation filters and the absorption spectrum of enhanced GFP (Clontech), we estimate that <1% of the signal at 340 nm excitation and <5% of the signal at 380 nm excitation is contributed by GFP, even in those cells where the fura/GFP loading ratio is smallest. This could lead to a small (<5%) systemic underestimation of free calcium concentration that should distribute randomly across experimental groups.
Calcium mobilization in the absence of influx was measure by ratio imaging fura-2 in Purkinje cells bathed in Ca^+2-free external saline and stimulated with a micropressure pulse of quisqualate, a metabotropic glutamate receptor agonist (Linden, Neuron 17:483 1996). […] The decay phase of the Ca^+2 response appeared somewhat slower in neurons transfected with the truncated form. […]

[2] = target: binding of mGluR1a or mGluR5 to each of the Homer family members; test: Synthetic peptide block of mGluR1a/mGluR5 binding to Homer family members; details: synthetic 10 mer peptides, read-out: peptide concentration at which approximately half of the binding was blocked
Description: This exquisite sensitivity of Homer binding to changes in single amino acids within the Homer-ligand site was confirmed in other Homer-interacting proteins including mGluR1a (Tu et al., 1998), Shank (Tu et al., 1999), and I42 (see below). To further confirm that the interaction was mediated by a direct interaction at the Homer-ligand site (as opposed to a secondary allosteric effect on a remote binding site), synthetic 10-mer peptides with either the wild type, or F-to-R mutation were prepared. The wild type peptide blocked binding of mGluR1a or mGluR5 to each of the Homer family members (Tu et al., 1998). Approximately half of the binding was blocked at a peptide concentration of 3.4 micromolar.
Mutations of mGluR5 were initially tested in the context of a 250aa C-terminal fragment, but were also determined to have an identical effect on binding when placed in the full length mGluR5 protein (Tu et al., 1998). This exquisite sensitivity of Homer binding to changes in single amino acid within the Homer-ligand site has been confirmed in other Homer-interacting proteins including mGluR1a (Tu et al., 1998), Shank (Tu et al., 1999) and I42 (see below). […] Approximately half of the binding was blocked at a peptide concentration of 3.4 micromolar.

Molecule | mGluR-evoked Ca^+2 response amplitude [1] | mGluR-evoked Ca^+2 response latency [1] | other results
CC(N)(C(=O)O)c1ccc(C(=O)O)cc1 (single isomer, unassigned; (+)) [(+)-MCPG, reference compound] |  |  | block of quisqualate-evoked Ca^+2 transient ([1]; 500 TM in the bath): completely blocked
C1CCC[C@H]2CCCN3CC[C@@H](CCCCCC[C@@H]4CCCN5CC[C@@H](CC1)O[C@@H]45)O[C@@H]23 [xestospongin C, reference compound] |  |  | block of quisqualate-evoked Ca^+2 transient ([1]; 1 TM in the internal saline): completely blocked
synthetic 10 mer peptide with the wild type Homer-ligand site; possibly SEQ ID NO:14 ALTPPSPFRD (extended region for peptide binding) [wild type peptide] |  |  | IC50 [2]: ~3.4 µM
B1 | 170 ± 9 nM | 10.5 ± 1.8 s | 
B2 | 244 ± 17 nM | 4.2 ± 0.9 s | 
